Values joined by “and” are separate entries in the source; they are usually repeats but may differ in a detail not shown here. Equal values may be shown once. Values belong to the binder of their own block, whether it stands above or below them.
What was measured:
[1] = molecular target: T1, seipin-Myc, Q96G97; assay: atomic force microscopy; proteins co-expressed in tsA 201 cells, isolated by anti-Myc immunoaffinity chromatography, imaged in tapping mode in air; particle volumes from heights and radii; details: remark: other sources report otherwise
T1 chain: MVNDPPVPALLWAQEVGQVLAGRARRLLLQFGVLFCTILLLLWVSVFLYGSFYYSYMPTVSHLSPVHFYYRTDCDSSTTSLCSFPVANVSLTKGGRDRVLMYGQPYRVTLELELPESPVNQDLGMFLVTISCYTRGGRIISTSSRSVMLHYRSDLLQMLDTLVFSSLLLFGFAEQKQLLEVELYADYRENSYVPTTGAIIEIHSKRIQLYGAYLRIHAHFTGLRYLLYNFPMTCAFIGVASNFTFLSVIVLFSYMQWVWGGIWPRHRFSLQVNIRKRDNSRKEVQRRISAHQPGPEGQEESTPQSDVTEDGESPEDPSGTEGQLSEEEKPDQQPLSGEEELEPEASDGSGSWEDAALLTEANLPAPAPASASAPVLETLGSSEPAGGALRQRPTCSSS

[2] = molecular target: T2, seipin-Myc (UniProt Q96G97 1-398); assay: as above; details: partners not purified
T2 construct: seipin (product of BSCL2) in the pcDNA3.1 MycHis vector; also called seipin dodecamers; not shown: Myc, C-terminal, kept; copies: 12
T2 sequence (looked up): T1 chain

stoichiometry N [1]: 12
B1: seipin-Myc, Q96G97 1-398 (natural protein)
chain: T1 chain

stoichiometry N [2]: 1 perilipin per seipin dodecamer and 2 perilipin per seipin dodecamer
B2: FLAG-perilipin (in tsA 201 cells) (natural protein, UniProt O60240 1-522, looked up)
chain: MAVNKGLTLLDGDLPEQENVLQRVLQLPVVSGTCECFQKTYTSTKEAHPLVASVCNAYEKGVQSASSLAAWSMEPVVRRLSTQFTAANELACRGLDHLEEKIPALQYPPEKIASELKDTISTRLRSARNSISVPIASTSDKVLGAALAGCELAWGVARDTAEFAANTRAGRLASGGADLALGSIEKVVEYLLPPDKEESAPAPGHQQAQKSPKAKPSLLSRVGALTNTLSRYTVQTMARALEQGHTVAMWIPGVVPLSSLAQWGASVAMQAVSRRRSEVRVPWLHSLAAAQEEDHEDQTDTEGEDTEEEEELETEENKFSEVAALPGPRGLLGGVAHTLQKTLQTTISAVTWAPAAVLGMAGRVLHLTPAPAVSSTKGRAMSLSDALKGVTDNVVDTVVHYVPLPRLSLMEPESEFRDIDNPPAEVERREAERRASGAPSAGPEPAPRLAQPRRSLRSAQSPGAPPGPGLEDEVATPAAPRPGFPAVPREKPKRRVSDSFFRPSVMEPILGRTHYSQLRKKS
notes: perilipin (product of PLIN1) in the pCMV3xFLAG vector; Same construct as m7, other host cells

From paper PMC6531784, “Discovering metabolic disease gene interactions by correlated effects on cellular morphology” (Molecular Metabolism, 2019)
